Assay [1] addresses NF-kB (mouse (endogenous in NIH3T3)).
The target of assay [2] is NFAT (mouse (endogenous in NIH3T3)) (UniProt Q60591).

Among the data in publication PMC2699478 are NF-kB-mediated transcription of luciferase (pNF-κB-Luc) in NIH3T3 cells co-transfected with the FOXP3 isoform; level left, induction without FOXP3 set 100% and NFAT-mediated transcription of luciferase (pNFAT-TA-Luc) in NIH3T3 cells co-transfected with the FOXP3 isoform; induction without FOXP3 set 100% values, retold here.

Chain of UniProt Q60591 (Q60591 whole entry): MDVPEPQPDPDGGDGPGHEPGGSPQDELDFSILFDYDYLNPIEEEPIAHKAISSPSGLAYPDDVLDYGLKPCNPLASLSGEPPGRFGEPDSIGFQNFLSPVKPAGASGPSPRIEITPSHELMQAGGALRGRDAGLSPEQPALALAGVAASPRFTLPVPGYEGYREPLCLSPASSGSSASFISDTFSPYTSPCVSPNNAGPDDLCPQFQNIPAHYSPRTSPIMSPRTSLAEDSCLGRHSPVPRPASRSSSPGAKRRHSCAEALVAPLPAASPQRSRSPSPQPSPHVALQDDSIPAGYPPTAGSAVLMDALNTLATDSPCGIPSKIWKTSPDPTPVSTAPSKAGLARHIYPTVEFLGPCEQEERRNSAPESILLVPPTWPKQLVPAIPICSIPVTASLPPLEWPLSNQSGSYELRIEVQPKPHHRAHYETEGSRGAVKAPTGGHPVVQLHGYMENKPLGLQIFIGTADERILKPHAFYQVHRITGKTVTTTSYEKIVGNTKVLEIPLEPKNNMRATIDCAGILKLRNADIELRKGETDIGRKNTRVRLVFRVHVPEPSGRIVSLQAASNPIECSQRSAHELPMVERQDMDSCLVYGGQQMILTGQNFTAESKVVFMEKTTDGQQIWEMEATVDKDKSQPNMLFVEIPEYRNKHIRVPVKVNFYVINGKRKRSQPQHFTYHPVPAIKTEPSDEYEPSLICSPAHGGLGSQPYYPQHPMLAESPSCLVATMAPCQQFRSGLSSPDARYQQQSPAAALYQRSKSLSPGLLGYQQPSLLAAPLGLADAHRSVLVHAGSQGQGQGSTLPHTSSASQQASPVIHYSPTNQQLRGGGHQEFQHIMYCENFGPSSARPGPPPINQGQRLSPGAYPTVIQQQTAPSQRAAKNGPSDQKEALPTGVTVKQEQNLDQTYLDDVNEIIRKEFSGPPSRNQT

FOXP3Δ2 (natural protein) came in with an NF-kB-mediated transcription of luciferase (pNF-κB-Luc) in NIH3T3 cells co-transfected with the FOXP3 isoform; level left, induction without FOXP3 set 100% in assay [1] of 9%. This substance also displayed an NFAT-mediated transcription of luciferase (pNFAT-TA-Luc) in NIH3T3 cells co-transfected with the FOXP3 isoform; induction without FOXP3 set 100% in assay [2] of 50%.
